Results on 3 molecules are retold here after patent US8372580B2, “BRCA1 function-based cellular assays” (Morehouse School of Medicine, priority 2008, dated 2013).

In this test the test system is ERα transcriptional activity in T47D breast cancer cells. Briefly: Cell based assay #2: ERE-luciferase reporter, E2-induced ERα activation by Ubc9 C93S. As to conditions: Ubc9 C93S (SUMO-independent), E2 1 μM. The procedure:
T47D cells (5×10^5) were plated in 6-well plates for 24 hours. The cells were washed twice in PBS followed by the addition of phenol red free DMEM containing 5% charcoal-stripped FBS for 48 hrs before transfection. The cells were transfected with 1 μg of each of the indicated plasmids (with a total of 2.5 μg DNA) using lipofectamine 2000 (Life Technology, USA). The cells were induced with 1 μM of E2 4 hours after transfections, harvested after an additional 40 hrs and assayed for luciferase activity following the manufacturer's instructions. Each set of experiments was performed in triplicate and repeated a least three times.
Background: Reporter assays use an easily measured gene product as a stand-in for the process of interest.

B1: BRCA1 (aa 1-182): amino-terminal BRCA1 fragment, residues 1-182, with N-terminal FLAG sequence (protein, UniProt P38398 1-182, looked up, fragment)
chain: MDLSALRVEEVQNVINAMQKILECPICLELIKEPVSTKCDHIFCKFCMLKLLNQKKGPSQCPLCKNDITKRSLQESTRFSQLVEELLKIICAFQLDTGLEYANSYNFAKKENNSPEHLKDEVSIIQSMGYRNRAKRLLQSEPENPSLQETSLSVQLSNLGTVRTLRTKQRIQPQKTSVYIEL
modifications: N-terminal FLAG tag
As to B1, the “inhibition of E2-mediated ERα transcription activation by Ubc9/C93S” value (from here on “inhibition”) is “inhibit E2-mediated ERα transcription activation by Ubc9/C93S”.

B2: BRCA1 (aa 1-182) Mut#4: BRCA1 1-182 fragment point mutant 4; apparently C61G (protein, UniProt P38398 1-182, looked up, fragment C61G)
chain: MDLSALRVEEVQNVINAMQKILECPICLELIKEPVSTKCDHIFCKFCMLKLLNQKKGPSQGPLCKNDITKRSLQESTRFSQLVEELLKIICAFQLDTGLEYANSYNFAKKENNSPEHLKDEVSIIQSMGYRNRAKRLLQSEPENPSLQETSLSVQLSNLGTVRTLRTKQRIQPQKTSVYIEL
Consider B2, for which the “inhibition” value was “unlike their respective Mut #1 and Mut#4, inhibit”.

B3: BRCA1 (aa 1-182) Mutant #1: BRCA1 1-182 fragment point mutant 1; apparently K109R (protein, UniProt P38398 1-182, looked up, fragment K109R)
chain: MDLSALRVEEVQNVINAMQKILECPICLELIKEPVSTKCDHIFCKFCMLKLLNQKKGPSQCPLCKNDITKRSLQESTRFSQLVEELLKIICAFQLDTGLEYANSYNFARKENNSPEHLKDEVSIIQSMGYRNRAKRLLQSEPENPSLQETSLSVQLSNLGTVRTLRTKQRIQPQKTSVYIEL
Turning to B3, the “inhibition” value was “unlike their respective Mut #1 and Mut#4, inhibit”.
